Results on one molecule are retold here after patent US20250092124A1 (YUNNAN BAIYAO GROUP, published 2025).

Numbering of substitutions follows the chain as printed.

Test [1] has as its target T1, GDF15-HIS (ACROBiosystems, CAT #: GD5-H5149) (human, UniProt Q99988 197-308).
T1 sequence (looked up): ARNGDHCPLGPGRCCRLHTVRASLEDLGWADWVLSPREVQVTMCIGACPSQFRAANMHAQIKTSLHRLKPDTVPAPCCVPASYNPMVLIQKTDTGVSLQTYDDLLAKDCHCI
Description: cell-based or functional assay.

Test [2] deals with T2, cynoGDF15-mFC (monkey (cyno); mouse, UniProt G7PWZ3 197-308).
T2 construct: also called monkey GDF15 (cynoGDF15)
T2 sequence (looked up): T1 sequence (looked up) with H6R, R21H, A54E, T63M, S64N, I112V
In words: ELISA, cynoGDF15-mFC coated. The method, then: The experiment was performed as detailed in Example 2, except that the coating protein was cynoGDF15-mFC (GDF15: Genbank accession number EHH29815.1; mFC: Genbank accession number AAH31470.1), and the antibodies to be tested (the humanized antibodies), negative control antibody (hIgG1), and positive control antibodies Ponsegromab and AV380-hIgG1 were added to each well of the coated plate.
On the technique in general: ELISA stands for enzyme-linked immunosorbent assay.

For test [3], the target named is T1, GDF15-HIS (ACROBiosystems, CAT #: …). Description: BLI (ForteBio Octet), antibody immobilised, GDF15 200-6.25 nM. For orientation: Biolayer interferometry detects binding as a change in optical thickness at a sensor tip.
Test [4] shares this target. Description: ELISA in stability test, antibody after pH 3.6 for 2-4 h; coated antigen not named. The method, then: An appropriate amount of each antibody was taken and adjusted to 5 mg/mL in storage buffer adjusted to pH 3.6 using an ultrafiltration tube. The antibodies were placed at room temperature for 2-4 hours, then protein aggregation was detected using SEC-HPLC, and protein binding activity change was detected by ELISA.

The target in test [5] is T3, GDF15-mFC protein (human; mouse, UniProt Q99988 197-308).
T3 construct: extracellular domain;domain: IgG2a-FC; also called GDF15-mFc fusion protein
T3 sequence (looked up): T1 sequence (looked up)
In words: blocking ELISA as in Example 4, GFRAL-hIgG1 Fc coated (competitor), GDF15-mFC mixed with antibody. Here is the method:
A fusion protein comprising the extracellular region of GFRAL protein (Genbank accession number NM_207410.2) and human IgG1-FC (Genbank accession number CAC20454.1) was diluted to […] with coating solution, followed by adding to ELISA plate at 50 μl/well and incubating at 4° C. overnight. The solution in the wells was discarded and the plate was washed 3 times with washing solution, each time for 3-5 minutes, and dried via tapping. 200 μl of blocking solution was added to each well followed by incubating at 4° C. overnight. The plate was washed 3 times with washing solution, and the coated plate may be stored at −20° C. or 4° C. for future use.
The antibodies to be tested, positive control antibody AV380-mIgG1 and blank control (PBS) were added to the wells. […] At the same time, GDF15-mFC protein (GDF15: Genbank accession number NM_004864.3; mFC: Genbank accession number AAH31470.1) was added at 20 ng/well and mixed with the antibodies to be tested. The wells were incubated at 37° C. for 1 hour, washed, and dried via tapping. Then the enzyme-labeled secondary antibody, horseradish peroxidase-labeled goat anti-mouse IgG (SIGMA, catalog number A9044-2 ml) was added to each well, at a dilution of 1:10000, 50-100 μl/well. The wells were incubated at 37° C. for 2 hours, washed, and dried via tapping. 100 μl of freshly prepared developing solution TMB was added to each well and incubated at 37° C. for 30 minutes. 2 mol/L H₂SO₄ was added to terminate the reaction, and the OD value was obtained on an enzyme-linked immunosorbent reader.
The experiment was performed as detailed in Example 4, except that the antibodies to be tested (the humanized antibodies), negative control antibody (hIgG1), and positive control antibodies Ponsegromab and AV380-hIgG1 were added to each well of the coated plate.

For test [6], the target named is T1, GDF15-HIS (ACROBiosystems, CAT #: …). In words: ELISA in stability test, antibody before treatment; coated antigen not named; before treatment (unstressed antibody, 10 mg/mL).

B1: 53E5(hz) (antibody, human IgG1, kappa, V domains shown)
VH: QVQLQESGPGLVKPSETLSLTCTFSGFSLSTSGMGVGWIRQPPGKGLEWLAHILWDDVKRYNPALKSRLTISKDSSKSQISLKLSSVTAADTAVYYCVQMAWDWFAYWGQGTTVTVSS
VL: DIQMTQSPSSLSASVGDRVTITCKASQNVDTNVAWYQQKPGQSPKALIYSASYRSSGVPSRFSGSGSGTDFTLTISSLQPEDFATYYCQQYHSYPTFGQGTRLEIKR
notes: also called S3E5 (hz); humanized antibody 53E5
Broadly, the EC50 is the concentration needed to bring the measured effect to its halfway point. In general, Kd refers to the constant that tells how readily two partners part at equilibrium. By koff is commonly meant a measure of how fast the partners let go of each other. In general, kon refers to a measure of how fast the partners come together. The term IC50 denotes the concentration that inhibits the measured activity by half. On to B1, for which, in test [1], the “Bottom (luciferase activity fold, fitted curve), HEK293 SRE-LUC2-cRET-GFRAL reporter cells” value was 1.1 and the “IC50, luciferase in HEK293 SRE-LUC2-cRET-GFRAL reporter cells stimulated with GDF15-His 5 ng/ml” value was found to be 0.0225 µg/mL. Moreover, in test [2], the EC50 is 0.0816 µg/mL and the OD450.Max worked out at 1.03 OD450. In test [3], this molecule had a Kd of 0.293 nM, a koff of 0.000271 s⁻¹ and a kon of 923000 M⁻¹ s⁻¹. The same molecule returned an EC50 in test [4] of 0.0699 µg/mL. Moreover, in test [5], the IC50 came to 0.253 µg/mL and the OD450.Max stood at 1.05 OD450. Further, it took 0.0588 µg/mL to reach a half-maximal effect in test [6] (EC50).
